The text below walks through data of the nanobody polyreactivity screen of Harvey et al. (2022).

The data set in a line: yeast display, Sf9 membrane polyspecificity reagent, FACS + sequencing; frameworks hold sequencing errors. The procedure, abridged: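 A synthetic nanobody library was expressed on Saccharomyces cerevisiae BJ5465 by galactose induction for 36–48 hours. The library was stained for 1 hour at 4 °C with 10% biotinylated, detergent-solubilized Sf9 membrane reagent and enriched with streptavidin microbeads before FACS. Low and high (top ~1%) gates were set on anti-HA fluorescence for expression and streptavidin fluorescence for reagent binding, and each polyreactivity label reflects the gate of origin.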
As to “QVQLVESGGGLVQAGGSLRLSCAASGSTISGYAKGWYRQAPGKERELVATISRGGSTNYADSVKGRFTISRDNAKNTVYLQMNSLKPEDTEVYYCAAVVSDYVWRYEYWGQGTQVTVSS”, the “polyreactivity (PSR sort gate)” value is recorded as “low polyreactivity”. With “QVQLVESGGGLVQAGGSLRLSCAASGSTISKYAMGWYRQAPGKERYLVAAISSRGGSTYYADSVKGRFTISRDNAKNTVYLQMNSLTPEDTAVYYCNATPYPGGNGRWRFWKSYRYWGQGTQVTVSS”, the “polyreactivity (PSR sort gate)” value is reported as “high polyreactivity”. Turning to “QVQLVESGGGLVQAGGSLRLSCAASGSTISRYTMGWYPQAPGKERELVAAIRRSGSSTYYADSVKGRYTISRDNAKYTVYLQMNSLKREDTAVYYCAVGRYRYGYWGQGTQVTVSS”, the “polyreactivity (PSR sort gate)” value was “high polyreactivity”.

As to “QVQLVESGGGLVQAGGSLRLSCAASGSTITNYAMGWYRQAPGKERELVAAIRYSGGRTYYADSVKGRFTISRDNANNPGYLQMNSLKPEDTAVYYCAADRASYFTYAYGYWGQGTQVTVSS”, the “polyreactivity (PSR sort gate)” value is recorded as “high polyreactivity”.

Take “QVQLVESGGGLVQAGGSLRLSCAASGSTITSNAMGWYRQAPGKERELVAAINTSGGSTYYADSVKGRFTISRDNAKNTVYLQMNSLKPEDTAVYYCNADYGGDEYRGLEFDYWGQGTQVTVSS”: the “polyreactivity (PSR sort gate)” value is given as “low polyreactivity”. In the case of “QVQLVESGGGLVQAGGSLRLSCAASGSTIVRYAMGWYRQAPGKERELVAAISSRGGSTYYADSVKGRFTNSRDNAKNTVYLQMNSLKAEDTGVYYCAAAQRCTNAYRVGSWGLGTQVTVSS” it was “high polyreactivity”; in that of “QVQLVESGGGLVQAGGSLRLSCAASGSTIVYYAMGWYIQAPGKERELVAAITSGGSTYDADSVKGRCTISRDNAKNTVYLQMNSQKPEDTAVYYCHADWWRGDEAYRMYYWGQGTQVTVSS”, “low polyreactivity”. With “QVQLVESGGGLVQAGGSLRLSCAASGSTIYAMGWYRQAPGKERELVAGINRSGTRTYYADSVKGRFTISRDNAKNTVYLQMNSLKPEDTAVYYCAALVYRPTYGYIFDYWGQGTQVTVSS”, the “polyreactivity (PSR sort gate)” value is reported as “high polyreactivity”. For the sequence “QVQLVESGGGLVQAGGSLRLSCAASGSTIYENAMGWYRQAPGKERELVAGISRGGGSTYYADSVKGRFTISRDNAKNTVYLQMNSLKPEDTAVYYCAAGSRVQGGYWGQGTQVTVSS”, the “polyreactivity (PSR sort gate)” value is “low polyreactivity”. As to “QVQLVESGGGLVQAGGSLRLSCAASGSTIYFNGMGWYRQAPGKERELVAAITSGGSTDYADSVKGRFTISRDNAKNTVYLQMNSLKPEDTAVYYCAADHYGRYDYWGQGTQVTVSS”, the “polyreactivity (PSR sort gate)” value is recorded as “low polyreactivity”. Turning to “QVQLVESGGGLVQAGGSLRLSCAASGSTIYFYAMGWYRQAPGKERELVAAITWSGGRTYYADSVKGRFTISRDNAKNTVYLQMNSLKPEDTAVYYCAAVRPPLARLYVAAKRFDSWGQGTQVTVSS”, the “polyreactivity (PSR sort gate)” value is recorded as “low polyreactivity”. In the case of “QVQLVESGGGLVQAGGSLRLSCAASGSTIYGYAMGWDRQAPGKERELVAAISYRGGSTYYADSVKGRFTISRDNAKNTVYLQMNSLKPEDTAVYYCAALGDDATSYGYWGQGTQVTVSS”, the “polyreactivity (PSR sort gate)” value was “high polyreactivity”. Regarding “QVQLVESGGGLVQAGGSLRLSCAASGSTIYHNAMGWYRQAPGKERELVAAISSGGSTHYADSVKGRFTISRDNAKNTVYLQMNSLKPEDTAVYYCATYSSVRQLLWGNGYWGQGTQVTVSS”, the “polyreactivity (PSR sort gate)” value is listed as “high polyreactivity”. “QVQLVESGGGLVQAGGSLRLSCAASGSTIYNYAMGSYRPAPGKVRELVASITWNGGSTYYADSVKGRFTISRDNAKNTVYLQMNSLKPEDTAVYYCAAEWTWTYPYDYWGQGTQVTVSS”: the “polyreactivity (PSR sort gate)” value is recorded as “low polyreactivity”.

“QVQLVESGGGLVQAGGSLRLSCAASGSTIYWYAMGWYRQAPGKERELVAAISLSGGSTYYADSVKGRFTFSRDNAKNTVYLQMNSLKPEDTAVYYCAARTSYYVYRHPSGRYDYWGQGTQVTVSS”: the “polyreactivity (PSR sort gate)” value is reported as “low polyreactivity”. Consider “QVQLVESGGGLVQAGGSLRLSCAASGSTIYWYAMGWYRQAPGKERELVAAISLSGGSTYYADSVKGRFTISRDNAKNTVYLQMNSLKPEDTAVYYCAARTSYYVYRHPSGRYDYWGQGTQVTVSS”, for which the “polyreactivity (PSR sort gate)” value was “low polyreactivity”. With “QVQLVESGGGLVQAGGSLRLSCAASGSTIYWYTMGWYRQPPGKEMELVAAITGGTGNTYYADSVKGRFTISRDNAKNTVYLQMNSLKPEDTAVYYCAAYYRRYDYDYWGQGTQVTVSS” the entry was “high polyreactivity”.

For “QVQLVESGGGLVQAGGSLRLSCAASGSTIYYNAMGWYRQAPGKERELVARISRSGGSTYADSVKGRFTISRDNAKNTVYLQMNSLKPEDTAVYYCNADAYGTPEFTSYAVRYDYWGQGTQVTVSS”, the “polyreactivity (PSR sort gate)” value is “low polyreactivity”. Consider “QVQLVESGGGLVQAGGSLRLSCAASGSTKYYVMGWYRQAPGKERELVAAISRGSSTYYADSVKGRFTISRDNAKNTVYLQMNSLKPEDTAVYYCAARGPWQAPYDYWGQGTQVTVSS”, for which the “polyreactivity (PSR sort gate)” value is “high polyreactivity”. With “QVQLVESGGGLVQAGGSLRLSCAASGSTLAFYAMGWYRQATGKQRELVAAISRSGGRTYYSDSVKGRFTISRDNAKNTVYLQMNSLKPEDTAVYYCAAYWYYYWWYDYWGQGTQVTVSS” the entry was “high polyreactivity”; with “QVQLVESGGGLVQAGGSLRLSCAASGSTLAIYAMGWYRQAPGKERELVAAISGGGSTYADSVKGRFTISRDNAKNTVYLQMNSLKPEETAVYYCNADGWGDRFWSNFRFDYWGQGTQVTVSS”, “low polyreactivity”.

In the case of “QVQLVESGGGLVQAGGSLRLSCAASGSTLANYAMGWYRQAPGKERELVAAINSGGSTYYADSVKGRFTISRDNAKNTVYLQMNSLKPEDTAVYYCAAETPNYYGWWEPVWHYYWGQGTQVTVSS”, the “polyreactivity (PSR sort gate)” value is on record as “high polyreactivity”. “QVQLVESGGGLVQAGGSLRLSCAASGSTLARYTMGWYRQAPGKERELVATIDFGGVNTYYADSVKGRFTISRDTAKNTVYLQMNSLKPEDTAVYYCAAYNRLKRNVLYDYWGQGTQVTVSS”: the “polyreactivity (PSR sort gate)” value is “low polyreactivity”. As for “QVQLVESGGGLVQAGGSLRLSCAASGSTLASNAKGWYRQAPGKERELVAAIRVSGASTYYADSVKGRFTISRDNAKNTVYLQMNSLKPEDTAVYYCAADYQFGVIYYYWGQGTQVTVSS”, the “polyreactivity (PSR sort gate)” value was “low polyreactivity”. With “QVQLVESGGGLVQAGGSLRLSCAASGSTLATNAMGWYRQAPGKERELVAYADSVKGRFTISRDNAKNTVYLQMNSLNPEDTAVYYCNVVFRYAYGVYYTPEFYYWGQGTQVTVSS” the entry was “low polyreactivity”. On to “QVQLVESGGGLVQAGGSLRLSCAASGSTLATYTMGWYRQAPGKERELVAAISFGGSTYYADSVKGRFTISRDNAKNTVYLQMNSLKPEDTAVYYCAVYGDSYWGAYYYSDGYWGQGTQVTVSS”, for which the “polyreactivity (PSR sort gate)” value is on record as “low polyreactivity”. In the case of “QVQLVESGGGLVQAGGSLRLSCAASGSTLDEYVMGWYRQAPGKEREFVAAISRSGSSTYYADSVKGRFTISRDNAKNTVYLQMNSLKPEDTAVYYCAARLYSSVVRYRYGYWGQGTQVTVSS” it was “high polyreactivity”; in that of “QVQLVESGGGLVQAGGSLRLSCAASGSTLDIYAMGWYRQAPGKERELVATINSTGGSTYYADSVKGRFTISRDNAKNTVYLQMNSLNPEDTAVYYCAADFGLFGPTTGYIRPYDYWGQGTQVTVSS”, “low polyreactivity”; in that of “QVQLVESGGGLVQAGGSLRLSCAASGSTLDKYAMGWYRQAPGKERELVAAISSSGGSTYYADSVKGRFTISRDNAKNTVYLQMNSLKPEDTAVYYCAARFFRGRYLDDYWGQGTQVTVSS”, “high polyreactivity”. As for “QVQLVESGGGLVQAGGSLRLSCAASGSTLDPNVMGWYRQAPGKEREWVAAITTGGSTYYADSVKGRFTFSRDNAKNTVYLQLYSLKPEDTAFYYCNKDIGWLAHSRIWLWYDYWGQGTQVTVAS”, the “polyreactivity (PSR sort gate)” value was “low polyreactivity”. In the case of “QVQLVESGGGLVQAGGSLRLSCAASGSTLDSYARGWYRQAPGTERELVAVIDTGGTTNYADSVKGRFTISRDNAKNTVYLQMNSLKPEDTAVYYCAADYAYYGYWFEGYDYWGQGTQVTVSS” it was “low polyreactivity”; in that of “QVQLVESGGGLVQAGGSLRLSCAASGSTLGANAMGWYRQAPGKERELVAAISISDGDTYYADSVKGRFTISRDNAKNPVYLQMNSLKPEDTAVYYCAADYWFQYRWYDYWGQGTQVTVSS”, “high polyreactivity”; in that of “QVQLVESGGGLVQAGGSLRLSCAASGSTLGAYAMGWYRQAPGKERELVAAISRSGGNTYYADSVKGRFTISRDNAKNTVYLQMNSLKPEDTAVYYCAAVKLFLGLCYDYWGQGTQVTVSS”, “low polyreactivity”. In the case of “QVQLVESGGGLVQAGGSLRLSCAASGSTLGGNAMGWYRQEPGKERELGAAITSSAGSTYYADSVKGRYTISRDNAKNTVYLQMNSLQPEDTAVYYCAADYSRDEYDYWGQGTEVTVSS” it was “low polyreactivity”; in that of “QVQLVESGGGLVQAGGSLRLSCAASGSTLGLNAMGWYRKAPGKERELVAAISQSGTSTYYADSVKGRFTISRDNAKNTVYLQMNSLKPEDTAVYYCAVEYTQWWTYDYWGQGTQVTVSS”, “low polyreactivity”; in that of “QVQLVESGGGLVQAGGSLRLSCAASGSTLGQYVMGWYRQAPGKERELVAAISRRGGRTNYADSVKGRFTISRDNAKNTVYLQMNSLNPEDTAVYYCAAKFRIYRPSKYYYWGQGTQVTVSW”, “high polyreactivity”. Regarding “QVQLVESGGGLVQAGGSLRLSCAASGSTLGRYAMGWYIQAPGKERELVAAISRGGGSTYYADSVKGRFTISRDNAKNTVYLQMNSLKPEDTAVYYCAARQYIGSPPHRRRFDYWGQGTQVTVSS”, the “polyreactivity (PSR sort gate)” value is “high polyreactivity”. In the case of “QVQLVESGGGLVQAGGSLRLSCAASGSTLGRYAMGWYRQAPGKERELVAAISRGGGSTYYADSVKGRFTISRDNAKNTVYLQMNSLKPEYTAVYYCAVGIVHRDSRYYYWGQGTQVTVSS” it was “high polyreactivity”; in that of “QVQLVESGGGLVQAGGSLRLSCAASGSTLISYTMGWYRQAPGKERELVAAITSAVTTYYADSVKGRFTISRDNAKNTVYLQMNSLIPEDTAVYDCNAVPDTRSGELDYWGQGTQVTVSS”, “low polyreactivity”; in that of “QVQLVESGGGLVQAGGSLRLSCAASGSTLKSYVMGWYRQAPGKERELVARISRSGGSTYYADSVKGRFTISRDNAKNTVYLQMNSLKPEDTAVYYCAAATPRLSYDYWGQGTQVTVSS”, “high polyreactivity”.

As to “QVQLVESGGGLVQAGGSLRLSCAASGSTLLSNAMGWYTQAPGKERELVAAINYSGGRTYYADSVKGRFTISRDNAKNTVYLQMNSLKPEDTAVYYCNALSSGHGSSSRYDYWGQGTQVTVSS”, the “polyreactivity (PSR sort gate)” value was “low polyreactivity”.
